Laboratory results taken from PMC8477192, “An ionic lock and a hydrophobic zipper mediate the coupling between an insect pheromone receptor BmOR3 and downstream effectors” (The Journal of Biological Chemistry, 2021).
Like-named read-outs stand apart in the source and are kept apart here.

Legend:
[1] = biological target: T1, YFP-BmOR3 (Bombyx mori, UniProt Q5FBE0 1-439); assay: FRET or BRET; arrestin recruitment BRET in living HEK293 cells; YFP-BmOR3 (WT or mutant) with Rluc-fused arrestin; bombykal for 10 min; pertussis toxin without effect; enhanced by BmOrco coexpression
T1 construct: BmOR3, pheromone (bombykal) receptor of Bombyx mori; also called N-terminal YFP-tagged BmOR3; YFP-WT-BmOR3; source: HEK293, transfected, in living cells; not shown: YFP, N-terminal, kept
T1 sequence (looked up): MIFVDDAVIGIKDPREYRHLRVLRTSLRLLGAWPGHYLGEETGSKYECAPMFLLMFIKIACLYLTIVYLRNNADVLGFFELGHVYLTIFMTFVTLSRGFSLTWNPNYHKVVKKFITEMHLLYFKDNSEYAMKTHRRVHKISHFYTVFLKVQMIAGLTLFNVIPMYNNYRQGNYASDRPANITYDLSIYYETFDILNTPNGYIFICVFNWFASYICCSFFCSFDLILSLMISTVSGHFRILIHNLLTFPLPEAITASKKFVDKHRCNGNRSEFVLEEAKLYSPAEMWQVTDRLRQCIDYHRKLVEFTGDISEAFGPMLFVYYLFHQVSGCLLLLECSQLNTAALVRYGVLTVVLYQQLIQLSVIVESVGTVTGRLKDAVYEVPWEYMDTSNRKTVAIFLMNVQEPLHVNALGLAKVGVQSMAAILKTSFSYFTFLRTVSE

[2] = biological target: YFP-BmOrco (Bombyx mori); assay: FRET or BRET; intermolecular BRET in living HEK293 cells after bombykal for 5 min (dose response or ΔBRET); Rluc-BmOR3 with YFP-BmOrco, or Rluc-BmOrco with YFP-BmOR3; pretreatment with 100 ng/ml pertussis toxin without significant effect
[3] = biological target: YFP-BmOrco (Bombyx mori); assay: FRET or BRET; saturation BRET in living HEK293 cells, no agonist; fixed Rluc donor, increasing YFP acceptor plasmid; coelenterazine h 5 μM; Lyn-YFP as negative control
[4] = biological target: T1, YFP-BmOR3; assay: intermolecular BRET; conditions: bombykal-induced, read off a plot
[5] = biological target: Rluc-BmOrco (Bombyx mori)
[6] = biological target: Rluc-BmOrco; assay: intermolecular BRET; conditions: bombykal-induced, read off a plot
[7] = biological target: Rluc-BmArr; assay: intermolecular BRET; conditions: read off a plot
[8] = biological target: T2, BmOR3 (Bombyx mori, UniProt Q5FBE0); assay: Arrestin recruitment BRET assay; type: cell-based; conditions: HEK293 cells; pretreatment
Method: HEK293 cells were transiently cotransfected with the N-terminal YFP-tagged BmOR3 together with N-terminal Rluc-fused β-arrestin-1, β-arrestin-2, or BmArr plasmids. Twenty-four hours after transfection, cells were distributed into a 96-well microplate and incubated for additional 24 h. The cells were stimulated with varying concentrations of bombykal for 10 min, and the BRET signal between YFP (530 nm) and Rluc (485 nm) was measured after the addition of the Rluc substrate coelenterazine h (5 μM) using a Mithras LB 940 multimode reader (Berthold Technologies). The BRET signal was calculated as the ratio of emission of YFP to Rluc.

[9] = biological target: T2, BmOR3; assay: Arrestin-kinase BRET assay; type: cell-based; conditions: HEK293 cells transfected with BmOR3; pretreatment
Method: Twenty-four hours after transfection, cells were distributed into a 96-well microplate. After another 24 h, the cells were stimulated with 1 μM bombykal (for BmOR3-transfected cells) or 1 μM AngII for 10 min (for AT1R-transfected cells). BRET between RLuc and YFP was measured using a Mithras LB 940 multimode reader after the addition of the RLuc substrate coelenterazine h (5 μM). The BRET signal was calculated as the ratio of emission of YFP (530 nm) to RLuc (485 nm).

[10] = biological target: T3, BmOR3–BmOrco (Bombyx mori, UniProt Q5FBE0); assay: BmOR3–BmOrco intermolecular BRET assay; type: cell-based; conditions: HEK293 cells; pretreatment 100 ng/ml
T3 sequence (Q5FBE0 1-439): T1 sequence (looked up)
T3 sequence (Q7YT34 1-472 partner): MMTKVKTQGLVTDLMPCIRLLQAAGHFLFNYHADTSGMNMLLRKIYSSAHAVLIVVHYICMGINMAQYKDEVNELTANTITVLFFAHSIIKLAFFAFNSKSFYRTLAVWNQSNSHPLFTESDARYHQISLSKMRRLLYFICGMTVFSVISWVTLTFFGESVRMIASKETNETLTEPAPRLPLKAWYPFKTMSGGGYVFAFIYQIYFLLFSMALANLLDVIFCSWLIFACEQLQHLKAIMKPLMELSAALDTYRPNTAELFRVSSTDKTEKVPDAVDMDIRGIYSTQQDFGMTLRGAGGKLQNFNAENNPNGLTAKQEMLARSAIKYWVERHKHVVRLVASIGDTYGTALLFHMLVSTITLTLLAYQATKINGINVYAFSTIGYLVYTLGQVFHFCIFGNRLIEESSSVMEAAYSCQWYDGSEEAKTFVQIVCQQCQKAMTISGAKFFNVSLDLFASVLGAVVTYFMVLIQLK
Method: HEK293 cells were cotransfected with the N-terminal Rluc-tagged WT BmOR3 together with N-terminal YFP-fused BmOrco plasmids or their mutants. Twenty-four hours after transfection, cells were distributed into a 96-well microplate. After another 24 h, the cells were stimulated with different concentrations of bombykal for 5 min. BRET between RLuc and YFP was measured using a Mithras LB 940 multimode reader after the addition of the RLuc substrate coelenterazine h (5 μM). The BRET signal was calculated as the ratio of emission of YFP (530 nm) to RLuc (485 nm). For the saturation BRET between Rluc-BmOrco and YFP-BmOR3, HEK293 cells were transfected with a fixed amount of Rluc-BmOrco and increasing amounts of YFP-BmOR3. The BRET signal between RLuc and YFP was directly measured after the addition of the substrate coelenterazine h (5 μM).

[11] = system: BmOR3 and BmOrco; assay: CalfluxVTN Ca2+ assay (BRET-based calcium sensor); type: cell-based, Bombyx mori; conditions: HEK293 cells; pretreatment 100 ng/ml
Method: HEK293 cells were cotransfected with plasmids encoding WT BmOR3 and BmOrco or their mutants, or AT1R together with CalfluxVTN probe. 24 h after transfection, cells were redistributed into 96-well flat-bottomed microplates. After another 24 h, cells were incubated with conventional buffer with Ca^2+ (135 mM NaCl, 5 mM KCl, 1 mM CaCl2, 5 mM D-glucose, 10 mM Hepes; pH = 7.4) or with Ca^2+-free buffer (135 mM NaCl, 5 mM KCl, 1 mM EGTA, 5 mM D-glucose, 10 mM Hepes; pH = 7.4), and stimulated with different concentrations of Bombykal (or AngII). The BRET ratio between Venus and Nluc was measured before (baseline) and after the addition of the Nluc substrate furimazine (5 μM) using a Mithras LB 940 multimode reader (Berthold Technologies). The BRET signal was calculated as ratio of emission of Venus (530 nm) to Nluc (460 nm). The baseline value was subtracted from the bombykal-stimulated BRET signal to obtain the ΔBRET value.

[12] = biological target: T1, YFP-BmOR3; assay: FRET or BRET; G protein recruitment BRET in living HEK293 cells; YFP-BmOR3 with Gi-Rluc; increasing bombykal for 2 min; net BRET after subtracting cells with Gi-Rluc only; net BRET also without bombykal; BmOrco coexpression without significant effect; conditions: partners not purified
[13] = HEK293 cells, parent: est. 0.027
[14] = HEK293 cells, parent: est. 0.053
[15] = bombykal-stimulated, parent: est. 0.012
[16] = HEK293 cells, bombykal, parent: est. 0.612
[17] = HEK293 cells, vehicle, parent: est. 0.592

Rluc-BmArr (natural protein)
EC50 of bombykal for the BRET increase (quantity not given) [1]: 90 nM

Rluc-BmOR3 (receptor)
EC50 of bombykal for the BRET increase [2]: 36 nM | BRET50 (receptor expression ratio) (receptor expression ratio) [3]: 1

Rluc-BmOrco F427A; I430A
response [4, 13]: 0.031 ΔBRET

Rluc-BmOrco K437E
response [4, 13]: 0.005 ΔBRET | response ([4]; parent: est. 0.038): 0 ΔBRET

Rluc-BmOrco L451A; L458A
response [4, 13]: 0.029 ΔBRET

Rluc-BmOrco V428A; V431A
response [4, 13]: 0.031 ΔBRET

Rluc-BmOrco Y464A; V467A; L468A; L471A
response [4, 13]: -0.006 ΔBRET | response ([4]; parent: est. 0.015): -0.005 ΔBRET

YFP-BmOR3 (from UniProt Q5FBE0 1-439) (receptor)
bombykal (1 μM)-stimulated Ca2+ response (CalfluxVTN BRET sensor) in HEK293 cells coexpressing BmOR3 and BmOrco, relative to angiotensin II through AT1R (% of the AT1R response) [5]: 70

YFP-BmOR3 (from UniProt Q5FBE0) E403K
response ([6]; parent: est. 0.038): 0 ΔBRET

YFP-BmOR3 (from UniProt Q5FBE0) F428A; F433A
response [6, 14]: 0.003 ΔBRET | response ([6]; parent: est. 0.015): 0.003 ΔBRET

YFP-BmOR3 (from UniProt Q5FBE0) I396A; M399A
response [6, 14]: 0.042 ΔBRET

YFP-BmOR3 (from UniProt Q5FBE0) L410A; L412A
response [6, 14]: 0.04 ΔBRET

YFP-BmOR3 (from UniProt Q5FBE0) R391E; K392E
response [6, 14]: 0.041 ΔBRET

YFP-BmOR3 (from UniProt Q5FBE0) S26A
response [7, 15]: 0.008 ΔBRET

YFP-BmOR3 (from UniProt Q5FBE0) T25A
response [7, 15]: 0.0082 ΔBRET

YFP-BmOR3 (from UniProt Q5FBE0) T25A; S26A; T42A
response [7, 15]: 0.0024 ΔBRET

YFP-BmOR3 (from UniProt Q5FBE0) T42A
response [7, 15]: 0.0086 ΔBRET

YFP-BmOR3 (from UniProt Q5FBE0) V394A; L398A
response [6, 14]: 0.041 ΔBRET

YFP-BmOR3 (from UniProt Q5FBE0) W33A
response [7, 16]: 0.605 BRET Ratio | response [7, 17]: 0.595 BRET Ratio

YFP-BmOR3 (from UniProt Q5FBE0) W103A
response [7, 16]: 0.605 BRET Ratio | response [7, 17]: 0.594 BRET Ratio

YFP-BmOR3 (from UniProt Q5FBE0) W209A
response [7, 16]: 0.604 BRET Ratio | response [7, 17]: 0.592 BRET Ratio

YFP-BmOR3 (from UniProt Q5FBE0) W286A
response [7, 16]: 0.605 BRET Ratio | response [7, 17]: 0.593 BRET Ratio

YFP-BmOR3 (from UniProt Q5FBE0) W383A
response [7, 16]: 0.603 BRET Ratio | response [7, 17]: 0.59 BRET Ratio

pertussis toxin [PTX]
effect of pretreatment on bombykal-induced β-arrestin recruitment to BmOR3 [8]: not affected | effect of pretreatment on bombykal-induced association of β-arrestin with ERK, SRC, and AKT [9]: not significantly affected | effect of pretreatment on bombykal-induced BmOR3–BmOrco complex formation [10]: no significant effects | effect of pretreatment on bombykal-induced complex-regulated calcium influx [11]: no significant effects

B1: N-terminal Rluc-fused β-arrestin-1 (natural protein, UniProt P49407 1-418, looked up)
chain: MGDKGTRVFKKASPNGKLTVYLGKRDFVDHIDLVDPVDGVVLVDPEYLKERRVYVTLTCAFRYGREDLDVLGLTFRKDLFVANVQSFPPAPEDKKPLTRLQERLIKKLGEHAYPFTFEIPPNLPCSVTLQPGPEDTGKACGVDYEVKAFCAENLEEKIHKRNSVRLVIRKVQYAPERPGPQPTAETTRQFLMSDKPLHLEASLDKEIYYHGEPISVNVHVTNNTNKTVKKIKISVRQYADICLFNTAQYKCPVAMEEADDTVAPSSTFCKVYTLTPFLANNREKRGLALDGKLKHEDTNLASSTLLREGANREILGIIVSYKVKVKLVVSRGGLLGDLASSDVAVELPFTLMHPKPKEEPPHREVPENETPVDTNLIELDTNDDDIVFEDFARQRLKGMKDDKEEEEDGTGSPQLNNR
notes: β-arrestin-1; also called βarr1; source: HEK293, transfected, in living cells; not shown: Rluc, N-terminal, kept
EC50 of bombykal for the BRET increase (quantity not given) ([1]; partners not purified): 91.1 ± 1.61 nM

B2: Gi2-Rluc (natural protein, UniProt P04899 1-355, looked up)
chain: MGCTVSAEDKAAAERSKMIDKNLREDGEKAAREVKLLLLGAGESGKSTIVKQMKIIHEDGYSEEECRQYRAVVYSNTIQSIMAIVKAMGNLQIDFADPSRADDARQLFALSCTAEEQGVLPDDLSGVIRRLWADHGVQACFGRSREYQLNDSAAYYLNDLERIAQSDYIPTQQDVLRTRVKTTGIVETHFTFKDLHFKMFDVGGQRSERKKWIHCFEGVTAIIFCVALSAYDLVLAEDEEMNRMHESMKLFDSICNNKWFTDTSIILFLNKKDLFEEKITHSPLTICFPEYTGANKYDEAASYIQSKFEDLNKRKDTKEIYTHFTCATDTKNVQFVFDAVTDVIIKNNLKDCGLF
notes: G protein alpha subunit Gi2 (Gαi2); also called Gαi-Rluc; Rluc-tagged Gi protein; source: HEK293, transfected, in living cells
EC50 of bombykal for the BRET increase [12]: 22 ± 3.22 nM

B3: Gi3-Rluc (natural protein, UniProt P08754 1-354, looked up)
chain: MGCTLSAEDKAAVERSKMIDRNLREDGEKAAKEVKLLLLGAGESGKSTIVKQMKIIHEDGYSEDECKQYKVVVYSNTIQSIIAIIRAMGRLKIDFGEAARADDARQLFVLAGSAEEGVMTPELAGVIKRLWRDGGVQACFSRSREYQLNDSASYYLNDLDRISQSNYIPTQQDVLRTRVKTTGIVETHFTFKDLYFKMFDVGGQRSERKKWIHCFEGVTAIIFCVALSDYDLVLAEDEEMNRMHESMKLFDSICNNKWFTETSIILFLNKKDLFEEKIKRSPLTICYPEYTGSNTYEEAAAYIQCQFEDLNRRKDTKEIYTHFTCATDTKNVQFVFDAVTDVIIKNNLKECGLY
notes: G protein alpha subunit Gi3 (Gαi3); also called Gαi-Rluc; Rluc-tagged Gi protein; source: HEK293, transfected, in living cells
EC50 of bombykal for the BRET increase [12]: 10.6 ± 2.06 nM
